Measurements taken from doi:10.1101/2025.09.10.675349 (bioRxiv, 2025).

Target: the molecule itself
Test: SEC

| Protein | binding result |
| --- | --- |
| Staphylococcus aureus serine protease-like protein B (SplB), recombinant, catalytically active (enzyme, UniProt Q2FFT0 37-240, looked up) ENNVTKVKDTNIFPYTGVVAFKSATGFVVGKNTILTNKHVSKNYKVGDRITAHPNSDKGNGGIYSIKKIINYPGKEDVSVIQVEERAIERGPKGFNFNDNVTPFKYAAGAKAGERIKVIGYPHPYKNKYVLYESTGPVMSVEGSSIVYSAHTESGNSGSPVLNSNNELVGIHFASDVKNDDNRNAYGVYFTPEIKKFIAENIDK | binds |
| Catalytically inactive SplB mutant (S193A), recombinant (enzyme, UniProt Q2FFT0 37-240, looked up) ENNVTKVKDTNIFPYTGVVAFKSATGFVVGKNTILTNKHVSKNYKVGDRITAHPNSDKGNGGIYSIKKIINYPGKEDVSVIQVEERAIERGPKGFNFNDNVTPFKYAAGAKAGERIKVIGYPHPYKNKYVLYESTGPVMSVEGSSIVYSAHTESGNAGSPVLNSNNELVGIHFASDVKNDDNRNAYGVYFTPEIKKFIAENIDK | binds |
